Results from patent US20080219985A1 (published 2008).
Where “and” joins values, the source holds several entries; their conditions need not be identical. Equal values may be shown once. Read-outs that look alike come from different tables or passages of the source.

Tests used:
GPCR73a receptor [1] = biological target: T1, GPCR73a receptor (human, UniProt Q8TCW9 1-393); assay: cell-based or functional assay
GPCR73a receptor [2] = biological target: T1, GPCR73a receptor; assay: cell-based or functional assay; remark: listed apart in the source
GPCR73b receptor [3] = biological target: T2, GPCR73b receptor (Homo sapiens (Human), UniProt Q8NFJ6 1-384); assay: cell-based or functional assay
T2 sequence (Q8NFJ6 whole entry): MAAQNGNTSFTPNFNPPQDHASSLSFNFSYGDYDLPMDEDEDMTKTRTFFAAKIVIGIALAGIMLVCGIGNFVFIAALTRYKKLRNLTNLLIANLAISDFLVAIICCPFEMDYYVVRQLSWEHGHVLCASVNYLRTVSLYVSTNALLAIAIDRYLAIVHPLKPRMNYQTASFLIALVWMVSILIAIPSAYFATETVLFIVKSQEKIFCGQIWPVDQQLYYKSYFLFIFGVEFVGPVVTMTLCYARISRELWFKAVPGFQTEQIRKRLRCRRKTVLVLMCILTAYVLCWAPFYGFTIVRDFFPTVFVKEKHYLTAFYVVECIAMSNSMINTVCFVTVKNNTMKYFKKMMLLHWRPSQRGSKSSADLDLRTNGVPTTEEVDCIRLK

GPCR73b receptor [4] = biological target: T2, GPCR73b receptor; assay: cell-based or functional assay; remark: listed apart in the source
[5] = biological target: T3, PROK2 receptor on Wky12-22 cells (rat aortic smooth muscle cells) (rat); assay: cell-based or functional assay
T3 sequence (Q4AEG4 whole entry): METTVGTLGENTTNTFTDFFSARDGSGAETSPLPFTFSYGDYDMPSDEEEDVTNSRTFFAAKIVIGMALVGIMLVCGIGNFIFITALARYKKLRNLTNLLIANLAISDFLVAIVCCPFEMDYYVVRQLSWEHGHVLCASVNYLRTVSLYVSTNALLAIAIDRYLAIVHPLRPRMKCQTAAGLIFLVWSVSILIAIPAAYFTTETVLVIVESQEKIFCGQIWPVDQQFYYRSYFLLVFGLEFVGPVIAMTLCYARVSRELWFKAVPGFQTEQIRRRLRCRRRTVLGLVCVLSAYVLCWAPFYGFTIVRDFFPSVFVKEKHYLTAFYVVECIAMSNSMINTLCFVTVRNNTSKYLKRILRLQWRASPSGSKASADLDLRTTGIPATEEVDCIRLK

[6] = biological target: PROK2 receptor on 4T1.2 murine breast cancer cells (mouse); assay: cell-based or functional assay
[7] = biological target: T3, PROK2 receptor on Wky12-22 cells (rat …); assay: saturation binding of I-125 PROK2 to Wky12-22 cell monolayers at 4 C, two-site nonlinear regression, low affinity site
Method: (§1) The binding of PROK2 to Wky12-22 cells was assessed using I¹²⁵-radiolabeled PROK2. Wky12-22 cells were seeded at low cell density and cultured for three to four days until they reached about 70% confluency. The cells were placed on ice, the medium was removed, and the monolayers were washed. The cells were incubated with increasing amounts of I¹²⁵-PROK2 in the absence (total binding) and presence (nonspecific binding) of a large excess of unlabeled PROK2. After various times at 4° C., the binding media were removed, the monolayers were washed, and the cells were solubilized with a small volume of 1.0 N NaOH. Cell associated radioactivity was determined in a gamma counter. The specific binding of I¹²⁵-PROK2 was calculated as the difference between the total and nonspecific values. The measured radioacitivity was normalized to cell number that was determined on a set of parallel cultures. Nonlinear regression using a two-site model was used to fit the binding data for determination of Kd and Bmax.

[8] = biological target: T3, PROK2 receptor on Wky12-22 cells (rat …); assay: saturation binding of I-125 PROK2 to Wky12-22 cell monolayers at 4 C, two-site nonlinear regression, high affinity site
Method: as §1

GPCR73a receptor [9] = biological target: T1, GPCR73a receptor; assay: cell-based or functional assay; remark: listed apart in the source

T1 sequence (Q8TCW9 whole entry): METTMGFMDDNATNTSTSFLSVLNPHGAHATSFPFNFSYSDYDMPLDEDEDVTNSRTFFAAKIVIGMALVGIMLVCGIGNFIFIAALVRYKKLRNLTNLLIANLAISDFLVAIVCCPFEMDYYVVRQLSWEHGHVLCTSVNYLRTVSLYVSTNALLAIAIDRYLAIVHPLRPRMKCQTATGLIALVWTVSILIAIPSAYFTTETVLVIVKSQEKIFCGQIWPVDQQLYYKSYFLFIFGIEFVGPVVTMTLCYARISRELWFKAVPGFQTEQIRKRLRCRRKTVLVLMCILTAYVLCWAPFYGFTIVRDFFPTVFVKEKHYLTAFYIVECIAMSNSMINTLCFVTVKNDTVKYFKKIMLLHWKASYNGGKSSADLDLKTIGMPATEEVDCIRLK

B1: human PROK2 produced in E. coli (in house) (ligand)
chain: AVITGACDKDSQCGGGMCCAVSIWVKSIRICTPMGKLGDSCHPLTRKVPFFGRRMHHTCPCLPGLACLRTSFNRFICLAQK
SRE-luciferase fold-induction at 1 ng/ml (GPCR73a receptor [1]): 4.1 fold-induction
SRE-luciferase fold-induction at 3.2 ng/ml (GPCR73a receptor [1]): 7.6 fold-induction
SRE-luciferase fold-induction at 10 ng/ml (GPCR73a receptor [1]): 10.2 fold-induction
SRE-luciferase fold-induction at 32 ng/ml (GPCR73a receptor [1]): 14.1 fold-induction
SRE-luciferase fold-induction at 100 ng/ml (GPCR73a receptor [1]): 17.6 fold-induction
SRE-luciferase fold-induction at 320 ng/ml (GPCR73a receptor [1]): 22 fold-induction
SRE-luciferase fold-induction at 1000 ng/ml (GPCR73a receptor [1]): 13.9 fold-induction
SRE-luciferase fold-induction at 1 ng/ml (GPCR73a receptor [2]): 1.9 fold-induction
SRE-luciferase fold-induction at 3.2 ng/ml (GPCR73a receptor [2]): 4 fold-induction
SRE-luciferase fold-induction at 10 ng/ml (GPCR73a receptor [2]): 8.4 fold-induction
SRE-luciferase fold-induction at 32 ng/ml (GPCR73a receptor [2]): 15 fold-induction
SRE-luciferase fold-induction at 100 ng/ml (GPCR73a receptor [2]): 19 fold-induction
SRE-luciferase fold-induction at 320 ng/ml (GPCR73a receptor [2]): 20.7 fold-induction
SRE-luciferase fold-induction at 1000 ng/ml (GPCR73a receptor [2]): 17.8 fold-induction
SRE-luciferase fold-induction at 1 ng/ml (GPCR73b receptor [3]): 0.7 fold-induction
SRE-luciferase fold-induction at 3.2 ng/ml (GPCR73b receptor [3]): 1.3 fold-induction
SRE-luciferase fold-induction at 10 ng/ml (GPCR73b receptor [3]): 1.9 fold-induction
SRE-luciferase fold-induction at 32 ng/ml (GPCR73b receptor [3]): 3 fold-induction
SRE-luciferase fold-induction at 100 ng/ml (GPCR73b receptor [3]): 4.7 fold-induction
SRE-luciferase fold-induction at 320 ng/ml (GPCR73b receptor [3]): 6.3 fold-induction
SRE-luciferase fold-induction at 1000 ng/ml (GPCR73b receptor [3]): 7.1 fold-induction
SRE-luciferase fold-induction at 1 ng/ml (GPCR73b receptor [4]): 1 fold-induction
SRE-luciferase fold-induction at 3.2 ng/ml (GPCR73b receptor [4]): 1.2 fold-induction
SRE-luciferase fold-induction at 10 ng/ml (GPCR73b receptor [4]): 1.7 fold-induction
SRE-luciferase fold-induction at 32 ng/ml (GPCR73b receptor [4]): 2.6 fold-induction
SRE-luciferase fold-induction at 100 ng/ml (GPCR73b receptor [4]): 4.4 fold-induction
SRE-luciferase fold-induction at 320 ng/ml (GPCR73b receptor [4]): 5.2 fold-induction
SRE-luciferase fold-induction at 1000 ng/ml (GPCR73b receptor [4]): 4.8 fold-induction

B2: human PROK2 (preparation not stated for the assay) (ligand)
chain: B1 chain
ERK 1/2 phosphorylation in Wky12-22 cells, 15 minutes after 100 ng/ml PROK2 [5]: 11 fold induction over basal
JNK phosphorylation in Wky12-22 cells, 15 minutes after 100 ng/ml PROK2 [5]: 3 fold
ERK phosphorylation in 4T1.2 cells (BIO-PLEX phospho-protein assay), maximal at 100 ng/ml PROK2 [6]: 1.8 fold

B3: human PROK2 with a carboxy-terminal Glu-Glu tag, produced in baculovirus (PROK2cee) (ligand)
chain: AVITGACDKDSQCGGGMCCAVSIWVKSIRICTPMGKLGDSCHPLTRKVPFFGRRMHHTCPCLPGLACLRTSFNRFICLAQKGLEYMPMD
notes: also called huPROK2-CEE-Bv; Baculovirus-expressed PROK2
Kd [7]: 31 nM
Kd [8]: 1.5 nM
SRE-luciferase fold-induction at 1 ng/ml, PROK2 heated at 56 C for 30 minutes (GPCR73a receptor [9]): 1.8 fold-induction
SRE-luciferase fold-induction at 1 ng/ml, fresh PROK2 (GPCR73a receptor [9]): 2.5 fold-induction
SRE-luciferase fold-induction at 3.2 ng/ml, PROK2 heated at 56 C for 30 minutes (GPCR73a receptor [9]): 3.7 fold-induction
SRE-luciferase fold-induction at 3.2 ng/ml, fresh PROK2 (GPCR73a receptor [9]): 7.1 fold-induction
SRE-luciferase fold-induction at 10 ng/ml, PROK2 heated at 56 C for 30 minutes (GPCR73a receptor [9]): 10 fold-induction
SRE-luciferase fold-induction at 10 ng/ml, fresh PROK2 (GPCR73a receptor [9]): 13.1 fold-induction
SRE-luciferase fold-induction at 32 ng/ml, PROK2 heated at 56 C for 30 minutes (GPCR73a receptor [9]): 14.8 fold-induction
SRE-luciferase fold-induction at 32 ng/ml, fresh PROK2 (GPCR73a receptor [9]): 18.7 fold-induction
SRE-luciferase fold-induction at 100 ng/ml, PROK2 heated at 56 C for 30 minutes (GPCR73a receptor [9]): 18.6 fold-induction
SRE-luciferase fold-induction at 100 ng/ml, fresh PROK2 (GPCR73a receptor [9]): 20.5 fold-induction
EC50 of ERK-Map kinase activity in Wky12-22 cells [5]: 0.5 nM and ~5 ng/ml
